T1: MR121 peptide C QTLEFLKIPS W
T1 sequence: QTLEFLKIPS

T2: MR121 peptide C QELEFLKI W
T2 sequence: QELEFLKI

T3: APP WT FRET peptide SEVKMDAEFR
T3 sequence: SEVKMDAEFR

T4: APP SW FRET peptide SEVNLDAEFR
T4 sequence: SEVNLDAEFR

T5: MR121 peptide C QTLEFLKI W
T5 sequence: QTLEFLKI

T6: Amylin FRET peptide GSNTYGKRNA
T6 sequence: GSNTYGKRNA

T7: TMEM 27 A FRET peptide RINNAFFLND
T7 sequence: RINNAFFLND

T8: MR121 peptide C QTLEFLKIP W
T8 sequence: QTLEFLKIP


Tests used:
[1] = target: dabsyl-…-LucY (TMEM27 FRET peptide)
[2] = tested on: T1, MR121 peptide C QTLEFLKIPS W
[3] = tested on: dabsyl-QTLEFLKIPS-LucY (TMEM27 FRET peptide)
[4] = tested on: T2, MR121 peptide C QELEFLKI W
[5] = tested on: MR121 peptide C QTLEFLK W
[6] = tested on: T3, APP WT FRET peptide SEVKMDAEFR
[7] = tested on: dabsyl-NSLEFLGIQP-lucifer yellow (ACE2 FRET peptide)
[8] = tested on: T4, APP SW FRET peptide SEVNLDAEFR
[9] = tested on: MR121 peptide C TLEFLKI W
[10] = tested on: T5, MR121 peptide C QTLEFLKI W
[11] = tested on: T6, Amylin FRET peptide GSNTYGKRNA
[12] = tested on: T7, TMEM 27 A FRET peptide RINNAFFLND
[13] = tested on: T8, MR121 peptide C QTLEFLKIP W

| Protein | FRET peptide cleavage activity [1] | Relative activity [2] | FRET peptide cleavage activity [3] | Relative activity [4] | Relative activity (MR121 peptide C QTLEF W) | Relative activity [5] | FRET peptide cleavage efficiency [6] | Relative activity (MR121 peptide C QTLEFL W) | FRET peptide cleavage efficiency [7] | FRET peptide cleavage efficiency [8] | Relative activity [9] | Relative activity [10] | FRET peptide cleavage efficiency [11] | FRET peptide cleavage efficiency [12] | Relative activity [13] | Relative activity (MR121 peptide C LEFLKI W) |
| --- | --- | --- | --- | --- | --- | --- | --- | --- | --- | --- | --- | --- | --- | --- | --- | --- |
| BACE1 (protein) TQHGIRLPLRSGLGGAPLGLRLPRETDEEPEEPGRRGSFVEMVDNLRGKSGQGYYVEMTVGSPPQTLNILVDTGSSNFAVGAAPHPFLHRYYQRQLSSTYRDLRKGVYVPYTQGKWEGELGTDLVSIPHGPNVTVRANIAAITESDKFFINGSNWEGILGLAYAEIARPDDSLEPFFDSLVKQTHVPNLFSLQLCGAGFPLNQSEVLASVGGSMIIGGIDHSLYTGSLWYTPIRREWYYEVIIVRVEINGQDLKMDCKEYNYDKSIVDSGTTNLRLPKKVFEAAVKSIKAASSTEKFPDGFWLGEQLVCWQAGTTPWNIFPVISLYLMGEVTNQSFRITILPQQYLRPVEDVATSQDDCYKFAISQSSTGTVMGAVIMEGFYVVFDRARKRIGFAVSACHVHDEFRTAAVEGPFVTLDMEDCGYNIPQTDESTLMTIAY | BACE1 had insignificant activity against this peptide |  |  |  |  |  |  |  |  |  |  |  |  |  |  |  |
| BACE2 enzyme ectodomain (enzyme, N-terminal Met) AAPELAPAPFTLPLRVAAATNRVVAPTPGPGTPAERHADGLALALEPALASPAGAANFLAMVDNLQGDSGRGYYLEMLIGTPPQKLQILVDTGSSNFAVAGTPHSYIDTYFDTERSSTYRSKGFDVTVKYTQGSWTGFVGEDLVTIPKGFNTSFLVNIATIFESENFFLPGIKWNGILGLAYATLAKPSSSLETFFDSLVTQANIPNVFSMQMCGAGLPVAGSGTNGGSLVLGGIEPSLYKGDIWYTPIKEEWYYQIEILKLEIGGQSLNLDCREYNADKAIVDSGTTLLRLPQKVFDAVVEAVARASLIPEFSDGFWTGSQLACWTNSETPWSYFPKISIYLRDENSSRSFRITILPQLYIQPMMGAGLNYECYRFGISPSTNALVIGATVMEGFYVIFDRAQKRVGFAASPCAEIAGAAVSEISGPFSTEDVASNCVPAQSLSE |  | 91 | BACE2 had a high activity against this sequence | 100 | 21 | 62 | cleaved less efficiently | 32 | cleaved by BACE2 with an efficiency greater than that of the TMEM27 substrate | cleaved less efficiently | 28 | 96 | cleaved less efficiently | cleaved less efficiently | 75 | 24 |
